Laboratory results: article doi:10.1101/116491 (bioRxiv, 2017)

Tests used:
[1] = target: OCP variant devoid of the N-terminal extension, purple fraction, ΔNTE(P) (Synechocystis) (UniProt P74102); test: SEC
[2] = target: the molecule itself; test: cross-linking
[3] = target: T1, Orange Carotenoid Protein, wildtype, His6-tagged, Synechocystis (OCP^WT) (Synechocystis, UniProt P74102 1-317); test: cross-linking
T1 sequence: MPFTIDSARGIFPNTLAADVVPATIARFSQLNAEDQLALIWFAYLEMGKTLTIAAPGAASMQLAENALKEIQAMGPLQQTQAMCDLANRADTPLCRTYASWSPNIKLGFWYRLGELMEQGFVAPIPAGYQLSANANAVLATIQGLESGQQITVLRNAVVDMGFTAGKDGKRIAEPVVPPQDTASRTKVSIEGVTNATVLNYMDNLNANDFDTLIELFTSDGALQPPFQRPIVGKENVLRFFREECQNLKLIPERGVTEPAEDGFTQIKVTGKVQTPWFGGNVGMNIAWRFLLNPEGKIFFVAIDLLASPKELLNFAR

[4] = target: T2, OCP variant devoid of the N-terminal extension, orange fraction, ΔNTE(O) (Synechocystis, UniProt P74102 21-317); test: SEC
T2 sequence: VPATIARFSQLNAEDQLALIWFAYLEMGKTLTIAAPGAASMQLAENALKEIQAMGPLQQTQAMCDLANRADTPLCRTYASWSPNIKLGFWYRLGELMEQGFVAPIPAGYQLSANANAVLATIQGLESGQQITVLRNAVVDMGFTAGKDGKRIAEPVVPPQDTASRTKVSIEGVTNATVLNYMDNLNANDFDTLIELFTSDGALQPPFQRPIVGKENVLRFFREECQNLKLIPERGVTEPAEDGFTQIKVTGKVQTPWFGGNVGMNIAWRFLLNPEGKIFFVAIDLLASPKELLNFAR

Molecule | stoichiometry N [1] | stoichiometry N [2] | stoichiometry N [3] | Kd [4] [nM] | stoichiometry N [4]
OCP variant devoid of the N-terminal extension, purple fraction, ΔNTE(P) (from UniProt P74102 21-317) (domain or fragment) | 2 |  |  |  | 
Fluorescence Recovery Protein (FRP), His6-tagged, Synechocystis (natural protein) LQTAEAPWSQAETQSAHALFRKAYQRELDGLLATVQAQASQITQIDDLWKLHDFLSAKRHEIDGKYDDRQSVIIFVFAQLLKEGLVQAEELTFLAADKQSKIKALARL |  | 2 | 1 | < 1000 | 1
